From US11248023B2 (NEURACLE SCIENCE CO., LTD., priority 2015, dated 2022)
Square brackets hold non-standard residues; d marks the D form. Ends that are not written are not given here. Peptide text beside a SMILES is read from it. * marks the point of attachment. Fmoc = O=C(OCC1c2ccccc2-c2ccccc21)*

Columns and labels:
GALR2 = target: T1, GALR2 (Homo sapiens, UniProt O43603); test: SRE-luc assay in HEK293-Gqi cells expressing GALR2; type: cell-based; conditions: for potency toward GALR2: SRE-luc, HEK293-Gqi cells, compared with spexin
T1 construct: expressed in transfected cells
T1 sequence (O43603 1-387): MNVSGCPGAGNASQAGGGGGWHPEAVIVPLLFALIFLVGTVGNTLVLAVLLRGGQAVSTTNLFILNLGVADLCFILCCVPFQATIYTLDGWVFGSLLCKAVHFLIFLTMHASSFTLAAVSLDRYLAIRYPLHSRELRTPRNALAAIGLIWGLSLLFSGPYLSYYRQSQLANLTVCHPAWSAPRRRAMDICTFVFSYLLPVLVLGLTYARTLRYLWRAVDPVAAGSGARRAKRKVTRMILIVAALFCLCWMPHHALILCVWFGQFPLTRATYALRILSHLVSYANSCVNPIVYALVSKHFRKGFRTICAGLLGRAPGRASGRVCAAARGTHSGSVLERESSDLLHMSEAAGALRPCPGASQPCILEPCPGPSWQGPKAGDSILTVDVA
Description: (§1) The HEK293-Gqi stable cell line is a cell line in which the C-terminus of Gq is substituted with 3 amino acids of G to convert the signals of G to Gq signaling pathways. […] GALR subtypes 1 and 3 induce inhibitory G-coupled signaling, while GALR subtype 2 triggers stimulatory Gq-coupled signaling. This difference explains the use of the HEK293-Gqi stable cell line in which the C-terminus of Gq is substituted with 3 amino acids of G to convert the signals of Gi to Gq signaling pathways.
(§2) GALR subtypes 1 and 3 induce inhibitory G-coupled signaling, while GALR subtype 2 triggers stimulatory Gq-coupled signaling. This difference explains the use of the HEK293-Gqi stable cell line in which the C-terminus of Gq is substituted with 3 amino acids of G to convert the signals of G to Gq signaling pathways. The activities of the receptors were measured using an SRE-luc assay system designed to express luciferase (luc) by serum responsive element (SRE) promoters. Light caused by a reaction between expressed luciferase and luciferin as a substrate was detected using a luminometer so that receptor subtype-specific or ligand-specific cellular activities were observed. One day after HEK293-Gqi cells were seeded in 48-well plates at a density of 2×10^4 cells/well, plasmid DNA and SRE-luc plasmid DNA, which encode GALR2 and GALR3, respectively, were mixed in a ratio of 1:1 (75 ng+75 ng)/well, and treated with Effectene reagent (2 μl/well). After 3 h, media were replaced with DMEM media supplemented with 10% FBS. After 24 h, the DMEM media were replaced with FBS-free DMEM media. After 16 h, each constructed spexin-based mutant peptide was further incubated at 37° C. for 6 h. After this stage was finished, cells were washed with PBS and lysed by the addition of 100 μl of lysis buffer (0.1% triton X-100, 0.2M Tris, pH 8.0) at room temperature for 20 min. The luciferase activity was determined using a synergy 2 Multi-mode microplate reader (BioTek, Winooski, Vt., USA) with automatic injection of a luciferin solution (0.5 M MgCl2, 0.1 M ATP, 0.05 M D-luciferin, 1 M KH2PO4, pH 7.8).

GALR3 = target: T2, GALR3 (Homo sapiens, UniProt O60755); test: SRE-luc assay in HEK293-Gqi cells expressing GALR3; type: cell-based; conditions: compared with spexin
T2 construct: expressed in transfected cells
T2 sequence (O60755 1-368): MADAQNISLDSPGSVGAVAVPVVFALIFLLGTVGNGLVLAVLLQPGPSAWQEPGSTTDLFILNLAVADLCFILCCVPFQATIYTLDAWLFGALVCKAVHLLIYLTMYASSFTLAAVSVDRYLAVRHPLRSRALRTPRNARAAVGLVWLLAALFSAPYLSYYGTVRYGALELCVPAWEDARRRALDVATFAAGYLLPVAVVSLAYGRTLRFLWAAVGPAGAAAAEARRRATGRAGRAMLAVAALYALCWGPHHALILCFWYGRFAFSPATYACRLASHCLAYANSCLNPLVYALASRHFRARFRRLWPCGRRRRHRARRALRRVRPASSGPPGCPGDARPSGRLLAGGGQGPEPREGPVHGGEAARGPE
Description: as §1, §2

[1] = Stability in 100% fetal bovine serum, residual potency via IP3 production in GALR2-expressing cells; conditions: 37° C.; for stability in serum (100% FBS): 0-72 h, IP3 production in GALR2-expressing cells
Protocol: The stability of the spexin-based mutant peptides was investigated. To this end, first, each modified mutant peptide at an initial concentration 10 μM was allowed to react in 100% fetal bovine serum (FBS) at 37° C. for 0, 3, 6, 12, 24, 48, and 72 h. Thereafter, the potencies of the mutant peptide toward GALR2 were determined via inositol 1,4,5-triphosphate (IP3) production in GALR2-expressing cells. For the IP3 assay, cells were seeded in 12-well plates at a density of 2.5×10^5 cells/well and then the next day, cells were treated with a mixture of 1 μg of GALR2-encoding plasmid DNA and Lipofectamine 2000 (Invitrogen). On day following treatment, cells were incubated in M199 media containing 1% FBS, 1% L-glutamine, 1% antibiotic, and myo-^3H inositol 1 μCi/well for 20 h to radioactively label inositol phosphate. After this stage was finished, cells were allowed to react in buffer A (140 mM NaCl, 20 mM Hepes, 4 mM KCl, 8 mM D-glucose, 1 mM MgCl2, 1 mM CaCl2), 1 mg/ml free fatty acid bovine serum albumin, and 10 mM LiCl at pH 7.2) for 30 min. After the mutant peptide was allowed to react in 100% FBS, cells were treated with the mutant peptide for 40 min at 37° C. Media was removed, and reactions were terminated by addition of 1 ml of 10 mM cold formic acid to each well. The plates were allowed to stand at 4° C. for 30 min. Then, the resulting extracts were transferred to 6-mL plastic tubes containing 500 μl AG1-8X anion exchange columns. The tubes were gently mixed with a vortexer, and the supernatants were removed from the labeled mixture. Two washes with 1 ml of triple-distilled water were performed followed by two additional washes with 60 mM ammonium formate/5 mM sodium tetraborate. The radioactively labeled mixture was eluted from the column with 1 ml of 1 M ammonium formate/0.1 M formic acid (1 mL), and 800 μl from the elution were taken from each tube and transferred into scintillation vials. Then, 2 ml of scintillation cocktail solution (Ultima Gold™, Perkin Elmer, Waltham Mass., USA) was added to each sample. The radioactivity of the mixture solution of the radioactively labeled mixture and the scintillation cocktail solution was measured using a TRI carb 2100TR liquid scintillation analyzer (Packard).

POMC neurons = test: Signaling, POMC expression and α-MSH in cultured POMC neurons (Western blotting, mRNA); type: cell-based; conditions: Fmoc sextuple mutant 1 μM, insulin 10 nM
Protocol: An increase in the potency of appetite-regulating brain neurons by administration of the GALR2 agonist was determined by immunohistochemistry (IHC). […] POMC neurons known to regulate appetite in the arcuate nucleus were cultured in vitro, treated with the Fmoc sextuple mutant (1 μM) and 10 nM insulin, washed with PBS, and lysed by the addition of 100 μl of lysis buffer (0.1% triton X-100, 0.2M Tris, pH 8.0) at room temperature for 20 min.
Proteins were extracted from cells and analyzed by Western blotting. […] POMC neurons were treated the GALR2 agonist and mRNA was then extracted. Increases in the number of the POMC neurons and the level of α-MSH were observed (FIGS. 11B to 11E).

| potency toward GALR3 (GALR3) | Compound | potency toward GALR2 (GALR2) | other results |
| --- | --- | --- | --- |
| decreased potency toward GALR3 | [Asn^5]: spexin-based single mutant peptide, asparagine at position 5, SEQ ID NO: 23 (NWTPNAMLYLKGAQ; [N5]-SPX) | maintained its potency toward GALR2 without a substantial difference | – |
| decreased potency toward GALR3 | [Pro^13]: spexin-based mutant peptide, proline at position 13, SEQ ID NO: 39 (NWTPQAMLYLKGPQ; [P13]-SPX) | maintained its potency toward GALR2 without a substantial difference | – |
| decreased potency toward GALR3 | [Phe^11]: spexin-based mutant peptide, phenylalanine at position 11, SEQ ID NO: 31 (NWTPQAMLYLFGAQ; [F11]-SPX) | maintained its potency toward GALR2 without a substantial difference | – |
| decreased potency toward GALR3 | [Leu^11]: spexin-based mutant peptide, leucine at position 11, SEQ ID NO: 32 (NWTPQAMLYLLGAQ; [L11]-SPX) | – | – |
| decreased potencies | [Gly^8]: spexin-based mutant peptide, leucine at position 8 replaced with glycine, SEQ ID NO: 26 (NWTPQAMGYLKGAQ; [G8]-SPX) | decreased potencies | – |

More lines, now with the values behind:

| Compound | potency toward GALR3 (GALR3) | potency toward GALR2 (GALR2) | other results |
| --- | --- | --- | --- |
| pQ: spexin with Asn1 replaced with pyroglutamate, SEQ ID NO: 10 | no influence | no influence | – |
| CSCC[C@H](NC(=O)[C@H](C)NC(=O)[C@H](CCC(N)=O)NC(=O)[C@@H]1CCCN1C(=O)[C@@H](NC(=O)[C@H](Cc1c[nH]c2ccccc12)NC(=O)[C@@H](N)CC(N)=O)[C@@H](C)O)C(=O)N[C@@H](CC(C)C)C(=O)N[C@@H](Cc1ccc(O)cc1)C(=O)N[C@@H](CC(C)C)C(=O)N[C@@H](CCCCN)C(=O)NCC(=O)N[C@@H](C)C(=O)N[C@@H](CCC(N)=O)C(N)=O [spexin, reference compound] | – | – | potency toward GALR2 (IP3 production) remaining after reaction in serum ([1]; 100% FBS, initial 10 μM, within 12 h): ≤ 80% |
| insulin [reference compound] | – | – | AKT phosphorylation (POMC neurons): phosphorylated; ERK phosphorylation (POMC neurons): phosphorylated |
| NC(=O)NCCC[C@H](N)C(=O)O [Cit] | no influence | no influence | – |
| NWTPNAALYLFGPQ-NH2 (C-terminus assumed) [Qu] | – | – | stability in serum (100% FBS) [1]: rapidly degraded compared to the wild-type spexin |
| Fmoc: spexin modified with Fmoc at position 1, SEQ ID NO: 45 | no influence | no influence | – |
| [Gly′]: spexin-based mutant peptide, Asn1 replaced with glycine, SEQ ID NO: 12 (GWTPQAMLYLKGAQ; [G1]-SPX) | maintained their potencies toward both receptors without differences from those of spexin | maintained their potencies toward both receptors without differences from those of spexin | – |
| [Leu^4]: spexin-based mutant peptide, leucine at position 4, SEQ ID NO: 20 (NWTLQAMLYLKGAQ; [L4]-SPX) | maintained their potencies toward both receptors without differences from those of spexin | maintained their potencies toward both receptors without differences from those of spexin | – |
| CC(C)C[C@H](NC(=O)[C@H](C)NC(=O)[C@H](C)NC(=O)[C@H](CC(N)=O)NC(=O)[C@@H](C)NC(=O)[C@@H](NC(=O)[C@H](Cc1c[nH]c2ccccc12)NC(=O)[C@H](CC(N)=O)NC(=O)OCC1c2ccccc2-c2ccccc21)[C@@H](C)O)C(=O)N[C@@H](Cc1ccc(O)cc1)C(=O)N[C@@H](CC(C)C)C(=O)N[C@@H](Cc1ccccc1)C(=O)NCC(=O)N1CCC[C@H]1C(=O)N[C@H](CCC(N)=O)C(N)=O [Fmoc-se] (Fmoc-NWT[dA]NAALYLFGP[dQ]-NH2) | – | – | AKT phosphorylation (POMC neurons): only the ERK pathway was phosphorylated; ERK phosphorylation (POMC neurons): phosphorylated; stability in serum (100% FBS) [1]: increased stability; specificity for GALR2 (GALR2; GALR2 versus GALR3): specificity for GALR2 |
| [dN^1]: spexin-based mutant peptide, Asn1 replaced with D-amino acid, SEQ ID NO: 9 | slightly increased the potency | slightly increased the potency | – |
| alanine | decreased potency toward GALR3 | maintained its potency toward GALR2 without a substantial difference | – |
